{"source": "patent US20210070883A1", "about": "(AQUALUNG THERAPEUTICS, published 2021)", "binders": {"B1": {"name": "murine anti-hNAMPT antibody AL-303 (antibody, V domains shown)", "VH": "QVQLQQPGADLVKPGASVKLSCKASGYTFTSYWMQWVKQRPGQGLEWIGEIDPSNSYTNYNQKFRGKATLTVDPSSSTAYMQLSSLTSEDSAVYYCARGGYWGQGTTLTVSS", "VL": "DIVMTQAAFSNPVTLGTSASISCRSSKSLLHSNGITYLYWYLQKPGQSPQLLIYQMSNLASGVPDRFSSSGSGTDFTLRISRVEAEDVGVYYCVQNLELPYTFGGGTKLEIK", "notes": "Murine monoclonal antibody"}, "B2": {"name": "murine anti-NAMPT antibody AL-304 (antibody, V domains shown)", "VH": "B1 VH", "VL": "B1 VL"}, "B3": {"name": "murine anti-NAMPT antibody AL-310 (antibody, V domains shown)", "VH": "QVQLQQSGAESVMPGASVKLSCKASGYTFTSYWMHWVKQRPGQGLEWIGEIDPSDSYTNYNQKFKGKSTLTVDKSSSTAYMQLSSLTSEDSAVYYCAKSNYVVPWYFDVWGTGTTVTVSS", "VL": "B1 VL with V94A, Y101W", "notes": "Murine monoclonal antibody; also called AL-310mAb"}, "B4": {"name": "1076 humanized anti-hNAMPT antibody K-1076 (antibody, V domains shown)", "VH": "QVQLVQSGAEVKKPGASVKVSCKASGYTFTSYWMQWVRQAPGQGLEWMGEIDPSNSYTNYNQKFRGRVTMTTDTSTSTAYMELRSLRSDDTAVYYCARGGYWGQGTTVTVSS", "VL": "DIVMTQSPLSLPVTPGEPASISCRSSKSLLHSQGITYLYWYLQKPGQSPQLLIYQLSNRASGVPDRFSGSGSGTDFTLKISRVEAEDVGVYYCVQNLELPYTFGGGTKLEIK", "notes": "also called Ab-1076-HC2-LC5"}, "B5": {"name": "1093 humanized anti-hNAMPT antibody NN-1093 (antibody, V domains shown)", "VH": "QVQLVQSGAEVTKPGASVKVSCKASGYTFTSYWMHWVRQAPGQGLEWVGEIDPSDSYTNYNQKFKGRVTLTRDTSTTTVYMELSSLRSEDTAVYYCAKSNYVVPWYFDVWGQGTTVTVSS", "VL": "EIVLTQSPATLSLSPGERATLSCRSSKSLLHSNGITYLYWYQQKPGQAPRLLIYQMSNLASGIPARFSGSGSGTDFTLTISSLEPEDFAVYYCAQNLELPWTFGGGTKLEIK", "notes": "Humanized from AL-310; it was detected with a goat anti-human antibody"}}, "key": {"[1]": {"biological_target": "T1, human nicotinamide phosphoribosyltransferase (NAMPT) (human, UniProt P43490 1-491)", "T1 construct": "Recombinant hNAMPT was bought (MBL International); In the Western blots the protein was recombinant or in HPAEC lysate; also called hNAMPT; recombinant hNAMPT", "T1 sequence (P43490 whole entry)": "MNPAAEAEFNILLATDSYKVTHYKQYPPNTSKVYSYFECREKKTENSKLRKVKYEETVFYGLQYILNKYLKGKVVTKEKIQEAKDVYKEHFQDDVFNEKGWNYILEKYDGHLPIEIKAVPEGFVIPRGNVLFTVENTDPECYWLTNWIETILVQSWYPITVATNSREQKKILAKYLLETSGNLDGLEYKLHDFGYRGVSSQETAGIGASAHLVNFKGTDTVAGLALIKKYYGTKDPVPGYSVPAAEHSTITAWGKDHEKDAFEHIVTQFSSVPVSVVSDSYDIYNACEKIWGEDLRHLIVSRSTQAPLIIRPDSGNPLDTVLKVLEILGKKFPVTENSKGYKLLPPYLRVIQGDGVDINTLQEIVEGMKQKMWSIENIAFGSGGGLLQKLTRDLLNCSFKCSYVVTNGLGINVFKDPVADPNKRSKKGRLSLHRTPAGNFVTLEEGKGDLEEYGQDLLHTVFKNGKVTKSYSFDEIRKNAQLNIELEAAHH", "assay": "Western blot on recombinant hNAMPT and HPAEC cell lysate, exposures of 30 sec and 5 min"}, "[2]": {"biological_target": "T2, mouse NAMPT (mouse, UniProt Q99KQ4 1-491, limits assumed)", "T2 construct": "Recombinant mNAMPT; also called mNAMPT; recombinant mouse NAMPT", "T2 sequence (Q99KQ4 whole entry)": "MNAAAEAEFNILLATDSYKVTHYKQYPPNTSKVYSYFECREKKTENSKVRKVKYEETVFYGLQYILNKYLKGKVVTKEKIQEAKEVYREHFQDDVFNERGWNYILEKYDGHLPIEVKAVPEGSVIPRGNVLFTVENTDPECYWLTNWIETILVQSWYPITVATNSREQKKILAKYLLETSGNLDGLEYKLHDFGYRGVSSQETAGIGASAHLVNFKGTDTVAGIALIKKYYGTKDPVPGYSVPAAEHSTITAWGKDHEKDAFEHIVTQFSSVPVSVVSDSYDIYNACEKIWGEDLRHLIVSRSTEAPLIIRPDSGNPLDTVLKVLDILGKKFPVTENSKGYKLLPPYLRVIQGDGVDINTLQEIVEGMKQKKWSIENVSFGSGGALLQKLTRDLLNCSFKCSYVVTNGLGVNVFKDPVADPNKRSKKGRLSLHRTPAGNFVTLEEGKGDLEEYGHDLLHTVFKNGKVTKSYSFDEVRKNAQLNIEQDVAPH", "assay": "Western blot on recombinant mNAMPT and mouse lung lysates (SB, LPS, VILI), exposures of 30 sec and 5 min"}, "[3]": {"biological_target": "T1, human nicotinamide …", "assay": "told with the Pepscan epitope mapping; assay for the dimer not described"}}, "note": "Substitutions are numbered along the chain they refer to."}
{"binder": "B1", "values": [{"measurement": "binding result", "setting": "[1]", "result": "binds"}, {"measurement": "binding result", "setting": "[2]", "result": "binds"}]}
{"binder": "B2", "values": [{"measurement": "binding result", "setting": "[1]", "result": "binds"}, {"measurement": "binding result", "setting": "[2]", "result": "binds"}]}
{"binder": "B3", "values": [{"measurement": "binding result", "setting": "[1]", "result": "binds"}, {"measurement": "binding result", "setting": "[2]", "result": "no binding"}]}
{"binder": "B4", "values": [{"measurement": "binding result", "setting": "[3]", "result": "binds"}]}
{"binder": "B5", "values": [{"measurement": "binding result", "setting": "[3]", "result": "binds"}]}
